Data reported in patent publication US6509447B1, “G protein chimeras and methods of screening compounds” (Glaxo Welcome Inc., priority 1997, dated 2003).

Target: T1, serotonin 5HT1A receptor (Homo sapiens, UniProt P08908)
T1 construct: expressed in transfected cells; host or cells: Saccharomyces cerevisiae strains MMY9 and MMY11, plasmid pDT-PGK-5-HT1A
T1 sequence (P08908 1-422): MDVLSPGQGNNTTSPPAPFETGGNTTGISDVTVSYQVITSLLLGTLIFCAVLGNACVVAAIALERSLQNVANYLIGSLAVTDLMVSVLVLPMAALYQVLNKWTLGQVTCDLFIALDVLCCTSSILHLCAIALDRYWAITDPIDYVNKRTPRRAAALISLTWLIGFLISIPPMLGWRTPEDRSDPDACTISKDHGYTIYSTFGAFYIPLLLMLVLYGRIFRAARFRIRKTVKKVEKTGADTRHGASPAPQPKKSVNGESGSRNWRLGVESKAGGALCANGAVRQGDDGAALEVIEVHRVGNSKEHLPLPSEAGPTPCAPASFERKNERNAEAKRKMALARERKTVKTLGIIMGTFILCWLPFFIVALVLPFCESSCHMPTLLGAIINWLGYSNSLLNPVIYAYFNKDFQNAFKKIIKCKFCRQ
Test: CPRG assay, MMY9 cells expressing 5-HT1A receptor plus Gα subunit
Format: cell-based
Design: key to coupling class where no EC50 could be fitted: weak activation insufficient to carry out curve-fitting was detected; NC: no coupling was detected
Protocol: Assay for combined FUS1-lacZ and FUS1-HIS3 Expression. In vivo assays of reporter gene induction (CPRG assays) were carried out by suspending cells to 0.02 OD600 in 200 μl SC-glucose (2%) lacking tryptophan, uracil and histidine. This medium was supplemented with agonists, and additionally 10 mM 3-aminotriazole and the β-galactosidase (lacZ) substrate chlorophenolred-β-D-galactopyranoside (CPRG; Boehringer) to a concentration of 0.1 mg/ml. To visualise the colour change reaction, the medium was buffered to pH 7 with 0.1 M sodium phosphate. The assay was conducted in a 96-well microtitre plate format. Plates were incubated for 24 hours without agitation, and absorbance at 570 nm was determined using a Victor microtitre plate reader (Wallac). EC50 values (+/−standard error) were estimated by curve-fitting, using the Robosage software package.
This experiment illustrates that, for certain receptors, the efficiency of coupling to the yeast pheromone response pathway can be enhanced by creating chimeras between yeast and mammalian Gα subunits. […] Agonist-dependent activation of FUS1-lacZ was determined by incubating cells in medium supplemented with the chromogenic, cell-permeant β-galacosidase (lacZ) substrate, chlorophenolred-β-D-galactopyranoside (CPRG; Boehringer Mannheim). […]

B1: Gpa1p: endogenous yeast Gα subunit, product of the GPA1 gene (protein, UniProt P08539 2-472, looked up)
Guanine nucleotide-binding …: GCTVSTQTIGDESDPFLQNKRANDVIEQSLQLEKQRDKNEIKLLLLGAGESGKSTVLKQLKLLHQGGFSHQERLQYAQVIWADAIQSMKILIIQARKLGIQLDCDDPINNKDLFACKRILLKAKALDYINASVAGGSDFLNDYVLKYSERYETRRRVQSTGRAKAAFDEDGNISNVKSDTDRDAETVTQNEDADRNNSSRINLQDICKDLNQEGDDQMFVRKTSREIQGQNRRNLIHEDIAKAIKQLWNNDKGIKQCFARSNEFQLEGSAAYYFDNIEKFASPNYVCTDEDILKGRIKTTGITETEFNIGSSKFKVLDAGGQRSERKKWIHCFEGITAVLFVLAMSEYDQMLFEDERVNRMHESIMLFDTLLNSKWFKDTPFILFLNKIDLFEEKVKSMPIRKYFPDYQGRVGDAEAGLKYFEKIFLSLNKTNKPIYVKRTCATDTQTMKFVLSAVTDLIIQQNLKKIGII
agonist-dependent induction of FUS1-LacZ / coupling, in words: failed to signal
coupling class where no EC50 could be fitted: NC
